Experimental data as given in US20250171555A1 (VISTERRA, published 2025).
Positions count from the first letter of the chain named.

Key:
C5aR2 VLP [1] = target: T1, C5aR2 VLP (UniProt Q9P296 1-337); assay: ELISA, C5aR2 VLP immobilized at 30 µg/mL, antibody titrated
C5aR2 VLP [2] = target: T1, C5aR2 VLP; assay: ELISA, C5aR2 VLP immobilized, as in Example 1

T1 sequence (Q9P296 whole entry): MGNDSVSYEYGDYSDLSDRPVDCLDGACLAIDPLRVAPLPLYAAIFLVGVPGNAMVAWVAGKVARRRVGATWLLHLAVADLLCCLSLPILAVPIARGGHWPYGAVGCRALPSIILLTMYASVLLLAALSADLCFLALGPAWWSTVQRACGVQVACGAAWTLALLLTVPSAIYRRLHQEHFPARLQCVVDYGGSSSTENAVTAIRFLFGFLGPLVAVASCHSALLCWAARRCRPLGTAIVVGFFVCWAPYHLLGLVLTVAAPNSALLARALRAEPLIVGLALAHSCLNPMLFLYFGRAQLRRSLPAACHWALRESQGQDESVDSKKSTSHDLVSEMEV

B1: c2139 (antibody, human IgG4 S228P, kappa)
heavy: not shown
light: DVQMTQSPSSLSASVGDRVTITCRASQSIVHSNGNTYLHWYQQKPGKAPKFLIYKVSNRFSGVPSRFSGSGSGTDFTLTISSLQPEDFATYYCAQYTLVPLTFGQGTKLEIKRTVAAPSVFIFPPSDEQLKSGTASVVCLLNNFYPREAKVQWKVDNALQSGNSQESVTEQDSKDSTYSLSSTLTLSKADYEKHKVYACEVTHQGLSSPVTKSFNRGEC
notes: also called humanized Site II antibody; monospecific C5aR1 antibody
Does B1 bind (C5aR2 VLP [1])?
Result: no binding

B2: c2137-e1711 (bispecific antibody, human IgG4 S228P, kappa)
heavy: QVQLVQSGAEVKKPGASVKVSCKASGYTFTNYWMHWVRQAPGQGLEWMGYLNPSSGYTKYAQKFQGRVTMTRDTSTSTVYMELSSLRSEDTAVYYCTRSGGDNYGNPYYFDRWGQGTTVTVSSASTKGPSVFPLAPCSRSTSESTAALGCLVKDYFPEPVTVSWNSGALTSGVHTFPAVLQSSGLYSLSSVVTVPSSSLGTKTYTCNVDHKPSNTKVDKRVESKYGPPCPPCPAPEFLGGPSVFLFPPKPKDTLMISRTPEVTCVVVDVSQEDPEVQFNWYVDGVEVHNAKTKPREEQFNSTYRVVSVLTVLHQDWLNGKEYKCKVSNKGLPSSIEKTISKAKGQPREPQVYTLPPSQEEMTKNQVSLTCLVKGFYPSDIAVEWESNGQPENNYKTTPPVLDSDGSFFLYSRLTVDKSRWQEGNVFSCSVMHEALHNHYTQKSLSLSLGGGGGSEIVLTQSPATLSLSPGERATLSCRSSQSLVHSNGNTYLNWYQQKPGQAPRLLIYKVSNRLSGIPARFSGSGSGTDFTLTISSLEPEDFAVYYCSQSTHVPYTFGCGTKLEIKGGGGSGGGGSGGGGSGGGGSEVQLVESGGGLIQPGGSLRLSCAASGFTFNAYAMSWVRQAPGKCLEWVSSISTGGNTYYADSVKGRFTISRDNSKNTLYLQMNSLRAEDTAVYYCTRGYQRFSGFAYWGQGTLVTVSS
light: B1 light with Y96S
notes: Tetravalent Fab-Fc-linker-scFv; also called humanized biparatopic antibody; biparatopic C5aR1 antibody
Does B2 bind (C5aR2 VLP [1])?
Result: no binding

B3: c2137-e1711-Fcmod (bispecific antibody, human IgG4 S228P, kappa)
heavy: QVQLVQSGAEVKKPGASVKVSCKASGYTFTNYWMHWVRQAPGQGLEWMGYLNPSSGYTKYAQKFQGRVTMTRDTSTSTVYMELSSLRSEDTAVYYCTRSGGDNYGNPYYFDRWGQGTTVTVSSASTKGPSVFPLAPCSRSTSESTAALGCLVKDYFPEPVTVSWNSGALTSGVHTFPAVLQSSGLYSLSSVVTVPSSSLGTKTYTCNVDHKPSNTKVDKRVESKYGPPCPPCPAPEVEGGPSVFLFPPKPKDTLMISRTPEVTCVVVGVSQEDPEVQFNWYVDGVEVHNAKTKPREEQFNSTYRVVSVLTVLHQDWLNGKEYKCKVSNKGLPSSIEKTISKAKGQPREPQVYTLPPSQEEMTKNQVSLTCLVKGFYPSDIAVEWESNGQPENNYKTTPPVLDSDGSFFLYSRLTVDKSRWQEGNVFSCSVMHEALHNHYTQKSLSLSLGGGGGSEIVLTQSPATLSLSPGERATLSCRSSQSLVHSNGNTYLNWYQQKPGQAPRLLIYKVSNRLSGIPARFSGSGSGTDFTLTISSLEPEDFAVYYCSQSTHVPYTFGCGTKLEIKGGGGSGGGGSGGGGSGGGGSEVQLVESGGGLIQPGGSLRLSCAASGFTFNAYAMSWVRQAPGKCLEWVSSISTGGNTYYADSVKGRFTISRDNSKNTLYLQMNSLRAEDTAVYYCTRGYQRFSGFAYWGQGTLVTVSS
light: B1 light with Y96S
notes: Fab-Fc-linker-scFv; also called biparatopic antibody with modified Fc domain
Does B3 bind (C5aR2 VLP [2])?
Result: no binding

B4: c2139-Fcmod (antibody, human IgG4 S228P, kappa)
heavy: not shown
light: B1 light
notes: also called c2139-Fmod; monospecific antibody with modified Fc domain
Does B4 bind (C5aR2 VLP [2])?
Result: no binding
